Reference: patent publication US20040176301A1 (CYCLACEL, published 2004)
Read-outs that look alike come from different tables or passages of the source. Square brackets hold non-standard residues; d marks the D form. Phg = N[C@H](C(=O)O)c1ccccc1; Tle = CC(C)(C)[C@H](N)C(=O)O; Nva = CCC[C@H](N)C(=O)O; Abu = CC[C@H](N)C(=O)O

B1: H-His-Abu-Lys-Arg-Arg-Leu-Ile-Phe-NH2 (peptide)
peptide: H-H[Abu]KRRLIF-NH2
SMILES: CC[C@H](NC(=O)[C@@H](N)Cc1c[nH]cn1)C(=O)N[C@@H](CCCCN)C(=O)N[C@@H](CCCNC(=N)N)C(=O)N[C@@H](CCCNC(=N)N)C(=O)N[C@@H](CC(C)C)C(=O)N[C@H](C(=O)N[C@@H](Cc1ccccc1)C(N)=O)[C@@H](C)CC
B2: H-His-Nva-Lys-Arg-Arg-Leu-Ile-Phe-NH2 (peptide)
peptide: H-H[Nva]KRRLIF-NH2
SMILES: CCC[C@H](NC(=O)[C@@H](N)Cc1c[nH]cn1)C(=O)N[C@@H](CCCCN)C(=O)N[C@@H](CCCNC(=N)N)C(=O)N[C@@H](CCCNC(=N)N)C(=O)N[C@@H](CC(C)C)C(=O)N[C@H](C(=O)N[C@@H](Cc1ccccc1)C(N)=O)[C@@H](C)CC
B3: H-His-Bug-Lys-Arg-Arg-Leu-Ile-Phe-NH2 (peptide)
peptide: H-H[Tle]KRRLIF-NH2
SMILES: CC[C@H](C)[C@H](NC(=O)[C@H](CC(C)C)NC(=O)[C@H](CCCNC(=N)N)NC(=O)[C@H](CCCNC(=N)N)NC(=O)[C@H](CCCCN)NC(=O)[C@@H](NC(=O)[C@@H](N)Cc1c[nH]cn1)C(C)(C)C)C(=O)N[C@@H](Cc1ccccc1)C(N)=O

Assays:
Test in all cases: cell-based or functional assay
CDK2/cyclin A complex = CDK2/cyclin A complex (UniProt P24941 1-298; P20248 1-432)
CDK2/cyclin A [1] = molecular target: T1, CDK2/cyclin A (UniProt P24941 1-298; P20248 1-432)
CDK2/cyclin A [2] = molecular target: T1, CDK2/cyclin A; remark: listed apart in the source

Binder	Relative activity, CDK2/cyclin A kinase inhibition (pRb substrate) (CDK2/cyclin A complex)	Relative activity, Kinase Inhibition (CDK2/cyclin A kinase assay, pRb substrate, [ATP] = 100 µM) (CDK2/cyclin A [1])	also measured
H-AAKRRLIF-NH2 [H-Ala-Ala-Lys-Arg-Arg-Leu-Ile Phe-NH2]	1.8 relative to HAKRRLIF-NH2		
XAKRRLIF (Pya (3-pyridylalanine) at position 1; C-terminal amide) [H-Pya-Ala-Lys-Arg-Arg-Leu-Ile Phe-NH2]	< 0.1 relative to HAKRRLIF-NH2		
XAKRRLIF (Thi (2-thienylalanine) at position 1; C-terminal amide) [H-Thi-Ala-Lys-Arg-Arg-Leu-Ile Phe-NH2]	2 relative to HAKRRLIF-NH2		
XAKRRLIF (Hse (homoserine) at position 1; C-terminal amide) [H-Hse-Ala-Lys-Arg-Arg-Leu-Ile Phe-NH2]	2 relative to HAKRRLIF-NH2		
H-FAKRRLIF-NH2 [H-Phe-Ala-Lys-Arg-Arg-Leu-Ile Phe-NH2]	3 relative to HAKRRLIF-NH2		
XAKRRLIF (Dab (diaminobutyric acid) at position 1; C-terminal amide) [H-Dab-Ala-Lys-Arg-Arg-Leu-Ile Phe-NH2]	5 relative to HAKRRLIF-NH2		
B1		5 relative to H-His-Ala-Lys-Arg-Arg-Leu-Ile-Phe-NH2 (=1)	
B2		< 0.1 relative to H-His-Ala-Lys-Arg-Arg-Leu-Ile-Phe-NH2 (=1)	
B3		0.2 relative to H-His-Ala-Lys-Arg-Arg-Leu-Ile-Phe-NH2 (=1)	
H-HVKRRLIF-NH2 [H-His-Val-Lys-Arg-Arg-Leu-Ile-Phe-NH2]		2 relative to H-His-Ala-Lys-Arg-Arg-Leu-Ile-Phe-NH2 (=1)	
H-HIKRRLIF-NH2 [H-His-Ile-Lys-Arg-Arg-Leu-Ile-Phe-NH2]		0.5 relative to H-His-Ala-Lys-Arg-Arg-Leu-Ile-Phe-NH2 (=1)	
H-H[Phg]KRRLIF-NH2 (also: Phg racemic, mixture of diastereomers) [H-His-Phg-Lys-Arg-Arg-Leu-Ile-Phe-NH2]		< 0.1 relative to H-His-Ala-Lys-Arg-Arg-Leu-Ile-Phe-NH2 (=1)	
H-HFKRRLIF-NH2 [H-His-Phe-Lys-Arg-Arg-Leu-Ile-Phe-NH2]		0.5 relative to H-His-Ala-Lys-Arg-Arg-Leu-Ile-Phe-NH2 (=1)	
H-HAKRALIF-NH2 [H-His-Ala-Lys-Arg-Ala-Leu-Ile-Phe-NH2]			Relative activity, Kinase Inhibition (CDK2/cyclin A kinase assay, pRb substrate, [ATP] = 100 µM) (CDK2/cyclin A [2]): < 0.1 relative to H-His-Ala-Lys-Arg-Arg-Leu-Ile-Phe-NH2 (=1)
H-HAKRNLIF-NH2 [H-His-Ala-Lys-Arg-Asn-Leu-Ile-Phe-NH2]			Relative activity, Kinase Inhibition (CDK2/cyclin A kinase assay, pRb substrate, [ATP] = 100 µM) (CDK2/cyclin A [2]): < 0.1 relative to H-His-Ala-Lys-Arg-Arg-Leu-Ile-Phe-NH2 (=1)
H-HAKRPLIF-NH2 [H-His-Ala-Lys-Arg-Pro-Leu-Ile-Phe-NH2]			Relative activity, Kinase Inhibition (CDK2/cyclin A kinase assay, pRb substrate, [ATP] = 100 µM) (CDK2/cyclin A [2]): < 0.1 relative to H-His-Ala-Lys-Arg-Arg-Leu-Ile-Phe-NH2 (=1)
